Molecular target: the molecule itself
Experiment: not stated; VelB heterologously expressed in Escherichia coli; data not shown

B1: VelB expressed in Escherichia coli (natural protein, Aspergillus nidulans, UniProt C8VTS4 1-369, looked up)
chain: MYAVEDRAHSGHHPPPLSMDRIPPPSTMYPSSAGPSAMVSPAGQPEPESLSTVHDGRIWSLQVVQQPIRARMCGFGDKDRRPITPPPCIRLIVKDAQTQKEVDINSLDSSFYVVMADLWNADGTHEVNLVKHSATSPSISTAMSSSYPPPPHPTSSDYPASYQTNPYGQPVGQPVGQPVGYAGVGNYYGGSTQLQYQNAYPNPQAQYYQPMYGGMAQPQMPAAQPVTPGPGGMFTRNLIGCLSASAYRLYDTEDKIGVWFVLQDLSVRTEGIFRLKFSFVNVGKSVSDLPQSDIAEVINKGTAPILASTFSEPFQVFSAKKFPGVIESTPLSKVFANQGIKIPIRKDGVKGQGSRGRHSDEDDGLDNEY
notes: VelB of Aspergillus nidulans, heterologously expressed; construct not described; neither the construct, its tags nor its purification are described; source: heterologous expression in Escherichia coli
  stoichiometry N: 2

Source: article PMC2996326, “LaeA Control of Velvet Family Regulatory Proteins for Light-Dependent Development and Fungal Cell-Type Specificity” (PLoS Genetics, 2010)
